Measurements published in PMC8599769.
Where two headings read alike, the source gives them in different places.

Molecular target: T1, PhoB~P (phosphorylated response regulator PhoB) (Escherichia coli) (UniProt P0AFJ5)
T1 sequence: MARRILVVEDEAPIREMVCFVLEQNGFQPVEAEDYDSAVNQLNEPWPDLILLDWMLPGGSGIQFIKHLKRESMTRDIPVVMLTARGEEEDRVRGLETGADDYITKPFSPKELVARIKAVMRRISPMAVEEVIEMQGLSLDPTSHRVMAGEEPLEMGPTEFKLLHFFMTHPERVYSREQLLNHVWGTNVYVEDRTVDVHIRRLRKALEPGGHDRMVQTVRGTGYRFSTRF
Experiment: EMSA

Substance: ATCACATGGTCCTGCTGGAGTTCGTGACCGCCGCCGGGATCACTCTCGGCATGGACGAGCTGTACAAGTAGCTGACCCGGGGAGGGTCGTTCTGTCATAAAACTGTCATATTCCACCGGGAAGGCTTGAGCTCCTAGATACATTCAAATATGTATCCGCTCATGAGACAATAACCCTGATA (double strand) [Decoy DNA (1 PhoB consensus site)]
- Kd: 200 nM

Substance: phnC promoter PhoB site DNA
- Kd (cited from earlier work): 1500 nM
